T1: dog iRhom2 full length wild type, C-terminally tagged with 3 consecutive copies of the T7 epitope (dog, UniProt Q00M95 1-827)
T1 construct: whole, on cells; also called Dog-iR2-FL-WT-T7
T1 sequence: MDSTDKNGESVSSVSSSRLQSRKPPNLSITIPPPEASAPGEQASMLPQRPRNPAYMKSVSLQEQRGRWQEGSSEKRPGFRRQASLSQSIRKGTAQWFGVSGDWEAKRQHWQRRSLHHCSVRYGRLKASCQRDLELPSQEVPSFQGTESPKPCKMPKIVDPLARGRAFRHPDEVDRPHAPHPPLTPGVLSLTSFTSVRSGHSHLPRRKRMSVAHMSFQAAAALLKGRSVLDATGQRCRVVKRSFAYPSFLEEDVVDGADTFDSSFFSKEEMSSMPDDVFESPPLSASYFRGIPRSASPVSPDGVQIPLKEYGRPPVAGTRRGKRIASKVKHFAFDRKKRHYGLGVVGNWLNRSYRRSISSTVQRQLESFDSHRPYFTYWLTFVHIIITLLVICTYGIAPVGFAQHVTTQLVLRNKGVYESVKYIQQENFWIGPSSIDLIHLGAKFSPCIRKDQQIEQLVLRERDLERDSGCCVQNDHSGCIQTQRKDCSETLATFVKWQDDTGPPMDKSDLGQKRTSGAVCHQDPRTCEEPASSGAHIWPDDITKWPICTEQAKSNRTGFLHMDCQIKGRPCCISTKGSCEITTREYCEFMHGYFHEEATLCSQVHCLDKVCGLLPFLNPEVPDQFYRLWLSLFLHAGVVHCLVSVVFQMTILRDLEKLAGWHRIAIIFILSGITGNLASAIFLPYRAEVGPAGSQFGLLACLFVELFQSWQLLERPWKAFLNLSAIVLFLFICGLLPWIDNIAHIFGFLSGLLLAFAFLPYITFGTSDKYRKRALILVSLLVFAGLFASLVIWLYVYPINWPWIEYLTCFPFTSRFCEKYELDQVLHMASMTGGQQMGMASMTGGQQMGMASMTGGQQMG

T2: hiR2-FL-I566E-T7 (human iRhom2 full length I566E, 3 x T7 tag) (human, UniProt Q6PJF5 1-856)
T2 sequence: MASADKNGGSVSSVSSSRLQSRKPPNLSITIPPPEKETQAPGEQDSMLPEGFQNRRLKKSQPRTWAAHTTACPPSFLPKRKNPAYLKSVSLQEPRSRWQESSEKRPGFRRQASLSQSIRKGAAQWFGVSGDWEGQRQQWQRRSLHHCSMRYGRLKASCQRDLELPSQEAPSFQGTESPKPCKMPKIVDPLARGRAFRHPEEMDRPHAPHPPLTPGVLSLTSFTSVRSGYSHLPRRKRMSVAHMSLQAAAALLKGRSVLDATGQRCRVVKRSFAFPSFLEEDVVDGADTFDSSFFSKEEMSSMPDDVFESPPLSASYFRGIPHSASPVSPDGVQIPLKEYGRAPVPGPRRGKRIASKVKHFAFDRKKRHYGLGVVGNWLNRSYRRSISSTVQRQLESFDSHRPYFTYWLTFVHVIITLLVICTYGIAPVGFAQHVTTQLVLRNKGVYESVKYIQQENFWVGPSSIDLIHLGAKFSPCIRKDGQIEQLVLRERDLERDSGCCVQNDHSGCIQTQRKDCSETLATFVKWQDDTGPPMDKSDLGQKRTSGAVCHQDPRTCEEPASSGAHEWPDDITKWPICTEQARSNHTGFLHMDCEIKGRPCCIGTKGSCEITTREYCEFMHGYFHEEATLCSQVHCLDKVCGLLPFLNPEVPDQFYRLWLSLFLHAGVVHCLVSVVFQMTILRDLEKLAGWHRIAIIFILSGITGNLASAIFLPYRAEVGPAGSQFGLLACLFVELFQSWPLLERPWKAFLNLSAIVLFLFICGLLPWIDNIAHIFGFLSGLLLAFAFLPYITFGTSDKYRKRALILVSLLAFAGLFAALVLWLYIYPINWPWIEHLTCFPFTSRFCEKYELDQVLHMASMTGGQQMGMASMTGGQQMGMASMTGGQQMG


Experiments:
[1] = molecular target: T1, dog iRhom2 full length wild type, …; test: FACS on MEF-DKO-iR2 Dog cells, 3 µg/ml
Experimental: In brief, immortalized MEF-DKO-EV control cells, MEF-DKO-rhesus-iR2-FL-WT-T7 cells, MEF-DKO-cyno-iR2-FL-WT-T7 cells, MEF-DKO-dog-iR2-FL-WT-T7 cells and MEF-DKO-rabbit-iR2-FL-WT-T7 cells, as well as their respective iRhom1 counterparts, were harvested with 10 mM EDTA in PBS, washed and resuspended in FACS buffer (PBS, 3% FBS, 0.05% sodium azide), and seeded in Nunc U-bottom 96-well plates (Thermo Fisher Scientific, USA) at approximately 3×10⁵ cells per well. To pellet cells and remove supernatants, the plates were centrifuged at 1,500 rpm and 4° C. for 3 minutes. For primary staining, cells were resuspended in 100 μl per well of either FACS buffer alone (controls), mouse monoclonal anti-T7 IgG (Merck Millipore, USA) at 3 μg/ml FACS buffer or the antibodies of the present disclosure also at 3 μg/ml FACS buffer and incubated on ice for 1 hour. Afterwards, plates were centrifuged at 1,500 rpm and 4° C. for 3 minutes and washed twice with 200 μl per well of FACS buffer. For secondary staining, cells were spun down and resuspended in 100 μl per well of PE-conjugated goat anti-mouse IgG F(ab′)2 detection fragment (Dianova, Germany) diluted 1:100 in FACS buffer. Protected from light, the cell suspensions were incubated on ice for 1 hour. […] Finally, cells were resuspended in 150 μl per well of FACS buffer and analyzed using a BD Accuri™ C6 Plus flow cytometer (Becton Dickinson, Germany).

[2] = molecular target: T2, hiR2-FL-I566E-T7 (human iRhom2 full …); test: FACS on MEF-DKO-hiR2-FL-I566E-T7 cells

Binder	binding result [1]	binding result [2]
antibody 16 (antibody, V domains shown, Mouse IgG, kappa light chain; also called clone #16; m16) VH: QVTLKESGPGILQPSQTLSLTCSFSGFSLSTFALGVGWIRQPSGRGLEWLAHIWWDDDKYYNPALKSRLTISKDTSKNHVFLKIANVDTADTATYYCARITTYYYGMDYWGQGTSVTVSS VL: DIVLSQSPATLSVTPGDSVSLFCRASQSIGNHLHWYQQESHASPRLLIKYASQSISGIPSRFSGSGSGTDFTLSINSVETEDFGMYFCQQSYNWPLTFGAGTKLELK	binds	
antibody 5 (antibody, V domains shown, Mouse IgG, kappa light chain; also called clone #5; purified antibody 5) VH: QVTLKESGPGILQPSQTLSLTCSFSGFSLSTFGMGVGWIRQPSGKGLEWLAHIWWDDEKYYNSALKSRLTISKATSKNQAFLKIANVDTADTATYYCARISNYGSNYWYFNVWGTGTTVTVSS VL: QVVLTQSPALMSASPGEKVTMTCSAGSSVSCMYWYQQKPGSSPRVLIYDTSNLASGVPARFTGSGSGTSYSLTISRMEAEDAASYYCQQWNSYPLTFGAGTKLELK		no binding (tested: 3 µg/ml)

Source: patent US20240174744A1 (SCIRHOM, published 2024)
